Experimental data reported in article PMC11077437, “Scrutiny of chimeric antigen receptor activation by the extracellular domain: experience with single domain antibodies targeting multiple myeloma cells highlights the need for case-by-case optimization” (Frontiers in Immunology, 2024).
Changes are numbered by the printed parent chain.

B1: VHH-17 (VHH)
VHH: DVQLVESGGGLVQPGDSLRLSCTASGFTFSNYPMSWVRQAPGKGPEWISHINTGGGSTYYADSVKGRFTISRDNAKNTLYLQMNSLKPEDTALYYCARGDPFKYSGSYLRGQGTQVTVSS
notes: 99mTc-labelled on the His tag for the in vivo experiment; source: E. coli WK6 periplasm, purified (IMAC, SEC); not shown: His6, C-terminal, kept
B2: VHH-73 (VHH)
VHH: DVQLVESGGGMVQSGGSLRLSCAASGFTFSSYDMSWVRQAPGKGPEWVSTINTGGSSTYYDDSVKGRFTISRDNAKNTLYLQMNSLKPEDTALYYCARGGPYSRDYWGQGTQVTVSS
notes: as for B1
B3: VHH-63 (VHH)
VHH: DVQLVESGGGLVQPGGSLRLSCTVSGLTFSDYDMSWVRQAPGKGPEWVSFINTGGGSTYYDDSVKGRFTISRDNAKNTLYLQMDSLKPEDTALYYCARGDPYSDPKYWGQGTQVTVSS
notes: as for B1
B4: VHH-6 (VHH)
VHH: DVQLVESGGGLVQAGGSLRLSCAASGRTFEDYFMAWFRQIPGKEREFVAAVGWNTGRGYYTDSVKGRFTISRDSAKNTLYLQMDSLKPEDTAVYYCNAPLQSLDRRLPGPYWGQGTQVTVSS
notes: as for B1
B5: VHH-61 (VHH)
VHH: DVQLVESGGGMVQPGGSLRLSCAASGFTFSSYGMSWVRQAPGKGPEWVSYINVGGGSTYYDDSVKGRFTISRDNAKNTLYLQMNSLKPEDTALYYCARGDPYSDHPQRTWGQGTQVTVSS
notes: as for B1
B6: VHH-78 (VHH)
VHH: QVQLQESGGGLVQPGGSLRLSCAASGSIFSILAMGWYRQAPGKQRELVASVTNGGSTNYADSVKGRFTISRDNAKNTVYLQMNSLKPEDTAVYYCNVRPYSDYDSWGHGTQVTVSS
notes: source: E. coli WK6 periplasm, purified (IMAC, SEC); not shown: His6, C-terminal, kept
B7: VHH-79 (VHH)
VHH: QVQLQESGGGLVQPGGSLRLSCAASGSIFSILAMAWYRQAPGKQRELVASITNGGSTNYADSVKGRFTISRDNDKNTVYLLMNSLKPEDTAVYYCNPRPMPWGTYDYWGQGTQVTVSS
notes: as for B6
B8: VHH-29 (VHH)
VHH: DVQLVESGGGLVQPGGSLRLSCAASGFTFSSYAMSWVRQAPGKGPEWVSHINTGGGSTYYDDSVKGRFTISRDNAKNTLYLQMNSLKPEDTALYYCARGDPFDEYRYWGQGTQVTVSS
notes: as for B1
B9: VHH-53 (VHH)
VHH: B8 VHH with L11M, A33D, H50Y, P88A, D103Q, E104R, Y105P, R106K
notes: as for B1
B10: VHH-51 (VHH)
VHH: B8 VHH with L11M, A33D, Q39L, H50Y, P88A, D103Q, E104R, Y105P, R106K
notes: as for B6
B11: VHH-24 (VHH)
VHH: B8 VHH with L11M, A33D, N52T, Y59H, E104S, Y105S, Y107D
notes: as for B6
B12: VHH-28 (VHH)
VHH: B8 VHH with F29L, S30D, S31D, H50Y, P88A, D103Q, E104R, Y105P, R106K
notes: as for B6
B13: VHH-65 (VHH)
VHH: B8 VHH with L11M, P14S, A33D, H50Y, P88A, D103Q, E104R, Y105P, R106K
notes: as for B6
B14: VHH-22 (VHH)
VHH: B8 VHH with A33D, N52T, Y59H, E104S, Y105S, Y107D
notes: as for B6
B15: VHH-57 (VHH)
VHH: B8 VHH with L11M, A33G, D61A, F102W, D103G, E104H, Y105D, R106P, Y107S
notes: as for B1
B16: VHH-71 (VHH)
VHH: B3 VHH with L11M, T23A, V24A, L27F, D31S, D84N
notes: as for B1
B17: VHH-56 (Table 1, the row between 53 and 57) (VHH)
VHH: B8 VHH with A33G, D61A, F102W, D103G, E104H, Y105D, R106P, Y107S
notes: this is the second; source: E. coli WK6 periplasm, purified (IMAC, SEC); not shown: His6, C-terminal, kept

Assays:
[1] = molecular target: T1, human CS1 on CS1pos OPM2 multiple myeloma cells (Homo sapiens, OPM2 myeloma cells, UniProt Q9NQ25); test: flow cytometry on cells; purified VHH at 200 nM, 1 h at 4°C, on CS1pos OPM2 cells; detected by mouse anti-His IgG1 mAb and APC anti-mouse IgG1 mAb; ΔMFI against the non-targeting control VHH R3B23 at 200 nM; n=1; conditions: one partner purified
T1 construct: CS1 (SLAMF7, CD319), human, as expressed on OPM2 cells; also called cell-expressed CS1; huCS1; source: on CS1pos OPM2 cells (ATCC)

[2] = molecular target: T1, human CS1 on CS1pos OPM2 multiple …; test: cell-based or functional assay
[3] = molecular target: T2, recombinant human CS1 protein (CS1-(his)C) (Homo sapiens, UniProt Q9NQ25); test: SPR; Biacore T200; recombinant CS1 amine-coupled on a CM5 chip; VHH 100 nM to 3.125 nM in HBS pH 7.4, 25°C; association 180 s, dissociation 300 s; fit '1:1 binding with drift and RI2'; n=1; conditions: both partners purified
T2 construct: CS1 (SLAMF7, CD319), human, the extracellular portion; also called huCS1; SLAMF7; source: HEK293-E 253 cells, transiently transfected, purified from the supernatant (IMAC, SEC) by U Protein Express

[4] = molecular target: T3, recombinant murine CS1 protein (CS1-(his)C) (Mus musculus, strain , UniProt Q8BHK6); test: SPR; follow-up SPR on plate-coated muCS1 (Supplementary Figure 1); conditions: both partners purified
T3 construct: CS1 (SLAMF7), murine, the extracellular portion; also called muCS1; source: HEK293-E 253 cells, transiently transfected, purified from the supernatant (IMAC, SEC) by U Protein Express

[5] = molecular target: T1, human CS1 on CS1pos OPM2 multiple …; test: flow cytometry on cells; purified VHH at 200 nM, 1 h at 4°C, on CS1pos OPM2 cells; detected by mouse anti-His IgG1 mAb and APC anti-mouse IgG1 mAb; ΔMFI against the non-targeting control VHH R3B23 at 200 nM; n=1; conditions: one partner purified; remark: listed apart in the source
[6] = molecular target: T2, recombinant human CS1 protein …; test: SPR; Biacore T200; recombinant CS1 amine-coupled on a CM5 chip; VHH 100 nM to 3.125 nM in HBS pH 7.4, 25°C; association 180 s, dissociation 300 s; fit '1:1 binding with drift and RI2'; n=1; conditions: both partners purified; remark: listed apart in the source
[7] = molecular target: T4, murine CS1 on muCS1pos 5T33vt cells (Mus musculus, 5T33vt myeloma cells, UniProt Q8BHK6); test: flow cytometry on cells; VHH on muCS1pos 5T33vt cells (Supplementary Figure 2); conditions: one partner purified
T4 construct: CS1 (SLAMF7), murine, as expressed on 5T33vt cells; source: on murine CS1pos 5T33vt cells
T4 sequence (Q8BHK6 23-333): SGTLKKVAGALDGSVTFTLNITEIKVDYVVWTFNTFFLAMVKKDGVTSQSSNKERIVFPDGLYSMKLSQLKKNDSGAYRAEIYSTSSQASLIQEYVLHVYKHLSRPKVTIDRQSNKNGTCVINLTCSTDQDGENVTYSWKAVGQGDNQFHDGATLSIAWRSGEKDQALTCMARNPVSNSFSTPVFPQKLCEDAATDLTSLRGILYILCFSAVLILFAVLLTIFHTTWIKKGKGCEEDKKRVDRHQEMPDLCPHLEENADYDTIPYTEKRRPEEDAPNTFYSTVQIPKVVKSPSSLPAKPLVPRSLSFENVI

T3 sequence (Q8BHK6 23-224): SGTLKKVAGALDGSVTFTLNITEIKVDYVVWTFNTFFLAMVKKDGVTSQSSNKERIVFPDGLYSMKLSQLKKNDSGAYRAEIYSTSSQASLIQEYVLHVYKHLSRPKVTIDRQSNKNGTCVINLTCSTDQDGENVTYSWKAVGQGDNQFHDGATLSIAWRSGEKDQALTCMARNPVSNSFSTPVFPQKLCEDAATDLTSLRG

| Binder | ΔMFI [VHH] = 200 nM [1] | tumor uptake of the 99mTc-labelled VHH in subcutaneous CS1pos OPM2 tumors in mice, ex vivo at 90 min p.i. (n=3) [2] | Kd [3] | koff [3] | kon [3] | binding result [4] | binding result [5] | binding result [6] | binding result [7] |
| --- | --- | --- | --- | --- | --- | --- | --- | --- | --- |
| B1 | 13 | 1.05 % IA/g |  |  |  |  |  |  |  |
| B2 | 1.35 | 0.52 % IA/g | 35.8 nM | 0.00254 s⁻¹ | 74400 M⁻¹ s⁻¹ |  |  |  |  |
| B3 | 3.37 | 1.03 % IA/g | 9.8 nM | 0.0019 s⁻¹ | 190000 M⁻¹ s⁻¹ |  |  |  |  |
| B4 | 101 | 6.29 % IA/g | 3.8 nM | 0.00079 s⁻¹ | 210000 M⁻¹ s⁻¹ |  |  |  |  |
| B5 | 10.3 | 6.57 % IA/g | 0.33 nM | 8.1e-05 s⁻¹ | 250000 M⁻¹ s⁻¹ |  |  |  |  |
| B6 |  |  |  |  |  | binds | no binding (tested: 200 nM) | no binding (tested: 100 nM) | binds |
| B7 |  |  |  |  |  | binds | no binding (tested: 200 nM) | no binding (tested: 100 nM) | binds |
| B8 | 29.4 | 4.75 % IA/g | 1.6 nM | 0.00024 s⁻¹ | 150000 M⁻¹ s⁻¹ |  |  |  |  |
| B9 | 22.1 | 7.5 % IA/g | 0.81 nM | 0.0003 s⁻¹ | 370000 M⁻¹ s⁻¹ |  |  |  |  |
| B10 | 14.3 |  | 0.6 nM | 0.00029 s⁻¹ | 490000 M⁻¹ s⁻¹ |  |  |  |  |
| B11 | 20.6 |  | 4.7 nM | 0.00047 s⁻¹ | 100000 M⁻¹ s⁻¹ |  |  |  |  |
| B12 | 6.58 |  | 1.2 nM | 0.00025 s⁻¹ | 210000 M⁻¹ s⁻¹ |  |  |  |  |
| B13 | 11.4 |  | 2.32 nM | 0.000979 s⁻¹ | 423000 M⁻¹ s⁻¹ |  |  |  |  |
| B14 | 7.29 |  | 4 nM | 0.00048 s⁻¹ | 120000 M⁻¹ s⁻¹ |  |  |  |  |
| B15 | 4.8 | 0.85 % IA/g | 24.7 nM | 0.0085 s⁻¹ | 350000 M⁻¹ s⁻¹ |  |  |  |  |
| B16 | 11.2 | 4.02 % IA/g | 4.29 nM | 0.0016 s⁻¹ | 372000 M⁻¹ s⁻¹ |  |  |  |  |
| B17 | 4.72 |  | 36.1 nM | 0.01 s⁻¹ | 279000 M⁻¹ s⁻¹ |  |  |  |  |
